B1: STRL33 169-186 (peptide)
peptide: YGNVFNLDKLICGYHDEA
modifications: not checked
B2: CXCR4 337-352 (peptide)
peptide: HSSVSTESESSSFHSS
modifications: not checked
B3: CXCR4 297-314 (peptide)
peptide: LNPILYAFLGAKFKTSAQ
modifications: not checked
B4: STRL33 149-166 (peptide)
peptide: KVTSLLIWVISLLVSLPQ
modifications: not checked
B5: CXCR4 273-290 (peptide)
peptide: GCEFENTVHKWISITEAL
modifications: not checked
B6: STRL33 1-18 (peptide)
peptide: MAEHDYHEDYGFSSFNDS
modifications: not checked
B7: STRL33 13-30 (peptide)
peptide: SSFNDSSQEEHQAFLQFS
modifications: not checked
B8: STRL33 157-174 (peptide)
peptide: VISLLVSLPQIIYGNVFN
modifications: not checked
B9: STRL33 53-70 (peptide)
peptide: LVISIFYHKLQSLTDVFL
modifications: not checked
B10: STRL33 21-38 (peptide)
peptide: EEHQAFLQFSKVFLPCMY
modifications: not checked
B11: CXCR4 325-342 (peptide)
peptide: SLKILSKGKRGGHSSVST
modifications: not checked
B12: CXCR4 321-338 (peptide)
peptide: SRGSSLKILSKGKRGGHS
modifications: not checked
B13: STRL33 77-94 (peptide)
peptide: DLVFVCTLPFWAYAGIHE
modifications: not checked
B14: CCR5 77-94 (peptide)
peptide: LFFLLTVPFWAHYAAAQW
modifications: not checked
B15: CXCR4 305-322 (peptide)
peptide: LGAKFKTSAQHALTSVSR
modifications: not checked
B16: CCR5 65-82 (peptide)
peptide: TDIYLLNLAISDLFFLLT
modifications: not checked
B17: STRL33 65-82 (peptide)
peptide: LTDVFLVNLPLADLVFVC
modifications: not checked
B18: CCR5 81-98 (peptide)
peptide: LTVPFWAHYAAAQWDFGN
modifications: not checked
B19: STRL33 73-90 (peptide)
peptide: LPLADLVFVCTLPFWAYA
modifications: not checked
B20: CXCR4 329-346 (peptide)
peptide: LSKGKRGGHSSVSTESES
modifications: not checked
B21: CXCR4 309-326 (peptide)
peptide: FKTSAQHALTSVSRGSSL
modifications: not checked
B22: STRL33 69-86 (peptide)
peptide: FLVNLPLADLVFVCTLPF
modifications: not checked
B23: CXCR4 277-294 (peptide)
peptide: ENTVHKWISITEALAFFH
modifications: not checked
B24: STRL33 17-34 (peptide)
peptide: DSSQEEHQAFLQFSKVFL
modifications: not checked
B25: STRL33 9-26 (peptide)
peptide: DYGFSSFNDSSQEEHQAF
modifications: not checked
B26: CCR5 89-106 (peptide)
peptide: YAAAQWDFGNTMCQLLTG
modifications: not checked
B27: CXCR4 281-298 (peptide)
peptide: HKWISITEALAFFHCCLN
modifications: not checked
B28: STRL33 93-110 (peptide)
peptide: HEWVFGQVMCKSLLGIYT
modifications: not checked
B29: STRL33 141-158 (peptide)
peptide: QAKRMTWGKVTSLLIWVI
modifications: not checked
B30: CCR5 73-90 (peptide)
peptide: AISDLFFLLTVPFWAHYA
modifications: not checked
B31: STRL33 101-118 (peptide)
peptide: MCKSLLGIYTINFYTSML
modifications: not checked
B32: CXCR4 301-318 (peptide)
peptide: LYAFLGAKFKTSAQHALT
modifications: not checked
B33: CCR5 85-102 (peptide)
peptide: FWAHYAAAQWDFGNTMCQ
modifications: not checked
B34: STRL33 81-98 (peptide)
peptide: VCTLPFWAYAGIHEWVFG
modifications: not checked
B35: STRL33 125-142 (peptide)
peptide: VDRFIVVVKATKAYNQQA
modifications: not checked
B36: STRL33 153-170 (peptide)
peptide: LLIWVISLLVSLPQIIYG
modifications: not checked
B37: STRL33 89-106 (peptide)
peptide: YAGIHEWVFGQVMCKSLL
modifications: not checked
B38: STRL33 5-22 (peptide)
peptide: DYHEDYGFSSFNDSSQEE
modifications: not checked
B39: STRL33 25-42 (peptide)
peptide: AFLQFSKVFLPCMYLVVF
modifications: not checked
B40: CCR5 97-114 (peptide)
peptide: GNTMCQLLTGLYFIGFFS
modifications: not checked
B41: STRL33 85-102 (peptide)
peptide: PFWAYAGIHEWVFGQVMC
modifications: not checked
B42: STRL33 173-190 (peptide)
peptide: FNLDKLICGYHDEAISTV
modifications: not checked
B43: CXCR4 313-330 (peptide)
peptide: AQHALTSVSRGSSLKILS
modifications: not checked
B44: STRL33 57-74 (peptide)
peptide: IFYHKLQSLTDVFLVNLP
modifications: not checked
B45: CXCR4 289-306 (peptide)
peptide: ALAFFHCCLNPILYAFLG
modifications: not checked
B46: STRL33 97-114 (peptide)
peptide: FGQVMCKSLLGIYTINFY
modifications: not checked
B47: CXCR4 333-350 (peptide)
peptide: KRGGHSSVSTESESSSFH
modifications: not checked
B48: CCR5 61-78 (peptide)
peptide: LKSMTDIYLLNLAISDLF
modifications: not checked
B49: CCR5 93-110 (peptide)
peptide: QWDFGNTMCQLLTGLYFI
modifications: not checked
B50: CXCR4 269-286 (peptide)
peptide: IIKQGCEFENTVHKWISI
modifications: not checked
B51: STRL33 165-182 (peptide)
peptide: PQIIYGNVFNLDKLICGY
modifications: not checked
B52: CCR5 5-22 (peptide)
peptide: VSSPIYDINYYTSEPCQK
modifications: not checked
B53: STRL33 49-66 (peptide)
peptide: NSLVLVISIFYHKLQSLT
modifications: not checked
B54: STRL33 45-62 (peptide)
peptide: GLVGNSLVLVISIFYHKL
modifications: not checked
B55: CXCR4 293-310 (peptide)
peptide: FHCCLNPILYAFLGAKFK
modifications: not checked
B56: CXCR4 317-334 (peptide)
peptide: LTSVSRGSSLKILSKGKR
modifications: not checked
B57: STRL33 37-54 (peptide)
peptide: MYLVVFVCGLVGNSLVLV
modifications: not checked
B58: STRL33 117-134 (peptide)
peptide: MLILTCITVDRFIVVVKA
modifications: not checked
B59: CCR5 69-86 (peptide)
peptide: LLNLAISDLFFLLTVPFW
modifications: not checked
B60: CXCR4 285-302 (peptide)
peptide: SITEALAFFHCCLNPILY
modifications: not checked

Values joined by “and” are separate entries in the source; they are usually repeats but may differ in a detail not shown here. Equal entries are not always repeated.

This assay addresses HIV-1LAI envelope gp120 labeled with radioactive iodine (HIV-1 LAI), P03377. Kind of assay: 125I-gp120, peptide array.
For the molecule B1, the counts minus background (counts per 20 min) is -41.5 and -20.5.
Take B2: the counts minus background (counts per 20 min) amounted to 103.
For B3, the counts minus background (counts per 20 min) came to 274.
Turning to B4, the counts minus background (counts per 20 min) is -39.5 and -118.
On to B5, for which the counts minus background (counts per 20 min) amounted to 264.
The same measure for B6: 1180 and 1320.
As for B7, the counts minus background (counts per 20 min) was 2690 and 2760.
As for B8, the counts minus background (counts per 20 min) was -60.5 and -128.
On to B9, for which the counts minus background (counts per 20 min) is 1620 and 1780.
With B10, the counts minus background (counts per 20 min) is 2320 and 1820.
Take B11: the counts minus background (counts per 20 min) turned out to be 285.
The same measure for B12: 169; for B13: 1120 and 1060; for B14: 173.
As to B15, the counts minus background (counts per 20 min) was determined as 200.
B16: the counts minus background (counts per 20 min) amounted to 38.
Turning to B17, the counts minus background (counts per 20 min) was 234 and 336.
As for B18, the counts minus background (counts per 20 min) was determined as 306.
Consider B19, for which the counts minus background (counts per 20 min) is 558 and 960.
As for B20, the counts minus background (counts per 20 min) turned out to be 185.
Consider B21, for which the counts minus background (counts per 20 min) came out at 173.
Consider B22, for which the counts minus background (counts per 20 min) is 70.5 and 51.5.
As to B23, the counts minus background (counts per 20 min) came out at 315.
The value for B24 was 870 and 2150; that for B25 was 8580 and 8910.
As for B26, the counts minus background (counts per 20 min) stood at 494.
B27: the counts minus background (counts per 20 min) was found to be 163.
Consider B28, for which the counts minus background (counts per 20 min) was 3390 and 3470.
Consider B29, for which the counts minus background (counts per 20 min) was -71.5 and -31.5.
Consider B30, for which the counts minus background (counts per 20 min) is 41.
B31: the counts minus background (counts per 20 min) was 1510 and 1280.
As for B32, the counts minus background (counts per 20 min) is 156.
On to B33, for which the counts minus background (counts per 20 min) came to 212.
The value for B34 was 1820 and 1750; that for B35 was 104 and 53.5.
As for B36, the counts minus background (counts per 20 min) was 42.5 and 75.5.
Turning to B37, the counts minus background (counts per 20 min) was 5910 and 6250.
The value for B38 was 3360 and 3690.
As for B39, the counts minus background (counts per 20 min) is 1420 and 1360.
The same measure for B40: 941; for B41: 7260 and 7540.
Consider B42, for which the counts minus background (counts per 20 min) is 1070 and 1080.
The value for B43 was 147.
In the case of B44, the counts minus background (counts per 20 min) was 1280 and 1260.
Take B45: the counts minus background (counts per 20 min) came out at 181.
In the case of B46, the counts minus background (counts per 20 min) is 1260 and 1350.
As to B47, the counts minus background (counts per 20 min) is 167.
The value for B48 was 210; that for B49 was 1020; that for B50 was 106.
As for B51, the counts minus background (counts per 20 min) is -18.5 and -37.5.
Regarding B52, the counts minus background (counts per 20 min) turned out to be 383.
Take B53: the counts minus background (counts per 20 min) is 1260 and 1380.
As for B54, the counts minus background (counts per 20 min) is 164 and 95.5.
Regarding B55, the counts minus background (counts per 20 min) stood at 123.
Take B56: the counts minus background (counts per 20 min) stood at 183.
The value for B57 was 168 and 236; that for B58 was 298 and 228; that for B59 was 144.
On to B60, for which the counts minus background (counts per 20 min) came to 188.

The record behind these values is patent publication US7304127.
